Assay results taken from patent US20180298361A1 (CHO PHARMA, published 2018).

What was measured:
[1] = molecular target: T1, recombinant soluble FcγRIIIA (UniProt P08637 17-208, limits assumed); assay: ELISA; recombinant soluble FcγRIIIA coated on plate; the reference itself
T1 construct: also called FcγIIIA; FcTRIIIA
Experimental: (§1) Microtiter plate (Corning® 96 Well Clear Flat Bottom Polystyrene High Bind, #9018) was coated with 50 ng/well of recombinant soluble FcγRIIIA diluted in 50 mM Bicarbonate/carbonate coating buffer (pH 10) overnight at 4° C. The plate was then washed 3 times with PBST (0.05% Tween 20 in PBS) and blocked with 5% BSA in PBST for 1 h at room temperature. The binding activity of glycoengineered antibodies (Rtx G1-G16) was determined for serial eight dilutions, starting with concentration of 100 μg/m1 in 2% BSA/PBST in duplicates. The plate was incubated for 1 h at room temperature, and washed 3 times with PBST. Next, 100 μl of goat anti-human IgG conjugated to horseradish peroxidase (Jackson immune, #109-035-088) in 2% BSA/PBST was added per well and incubated for 30 min at room temperature. The plate was washed 5 times with PBST then 100 μL per well of TMB substrate (eBioscience, #00-4201-56) was added and the resulting plate was incubated in the dark 15 min at room temperature. The absorbance value was determined at 450 nm in an ELISA reader (Molecular Devices Corporation, Sunnyvale, Calif., USA).

[2] = molecular target: T1, recombinant soluble FcγRIIIA; assay: ELISA; recombinant soluble FcγRIIIA coated on plate, antibody titrated, anti-human IgG-HRP detection
Experimental: as §1

[3] = molecular target: T1, recombinant soluble FcγRIIIA; assay: ELISA; recombinant soluble FcγRIIIA coated on plate; against commercial Rituximab
Experimental: as §1

T1 sequence (P08637 17-208 limits assumed): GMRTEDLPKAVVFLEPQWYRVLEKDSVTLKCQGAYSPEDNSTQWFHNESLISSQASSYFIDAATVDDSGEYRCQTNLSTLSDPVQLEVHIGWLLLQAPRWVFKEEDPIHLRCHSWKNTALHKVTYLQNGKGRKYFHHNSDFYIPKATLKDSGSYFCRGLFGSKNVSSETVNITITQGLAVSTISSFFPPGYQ

Binder	EC50 improvement Folds [1]	EC50 [2]	Maxi binding (A450 nm) [2]	EC50 improvement Folds [3]
Rtx-G11 (antibody, human IgG1, kappa, homogeneous N-glycan G11 (bi-antennary complex type; structure only in FIG. 15) at Asn-297, also called glycoengineered Rituximab G11; bi-antennary complex type glycoform) heavy: not shown light: QIVLSQSPAILSASPGEKVTMTCRASSSVSYIHWFQQKPGSSPKPWIYATNLASGVPVRFSGSGSGTSYSLTISRVEAEDAATYYCQQWTSNPPTFGGGTKLEIKRTVAAPSVFIFPPSDEQLKSGTASVVCLLNNFYPREAKVQWKVDNALQSGNSQESVTEQDSKDSTYSLSSTLTLSKADYEKHKVYACEVTHQGLSSPVTKSFNRGEC	–	0.199 µg/mL	2.4 A450 nm	5.4 fold
Rtx-G6 (antibody, human IgG1, kappa, homogeneous non-fucosylated N-glycan G6 (tri-antennary complex type with terminal alpha-2,6 sialic acids) at Asn-297, also called glycoengineered Rituximab G6; tri-antennary complex type glycoform) heavy: not shown light: QIVLSQSPAILSASPGEKVTMTCRASSSVSYIHWFQQKPGSSPKPWIYATNLASGVPVRFSGSGSGTSYSLTISRVEAEDAATYYCQQWTSNPPTFGGGTKLEIKRTVAAPSVFIFPPSDEQLKSGTASVVCLLNNFYPREAKVQWKVDNALQSGNSQESVTEQDSKDSTYSLSSTLTLSKADYEKHKVYACEVTHQGLSSPVTKSFNRGEC	–	0.032 µg/mL	2.8 A450 nm	34 fold
Rtx-G14 (antibody, human IgG1, kappa, homogeneous N-glycan G14 (bi-antennary complex type; structure only in FIG. 15) at Asn-297, also called glycoengineered Rituximab G14; bi-antennary complex type glycoform) heavy: not shown light: QIVLSQSPAILSASPGEKVTMTCRASSSVSYIHWFQQKPGSSPKPWIYATNLASGVPVRFSGSGSGTSYSLTISRVEAEDAATYYCQQWTSNPPTFGGGTKLEIKRTVAAPSVFIFPPSDEQLKSGTASVVCLLNNFYPREAKVQWKVDNALQSGNSQESVTEQDSKDSTYSLSSTLTLSKADYEKHKVYACEVTHQGLSSPVTKSFNRGEC	–	0.033 µg/mL	2.4 A450 nm	33 fold
Rtx-G13 (antibody, human IgG1, kappa, homogeneous N-glycan G13 (bi-antennary complex type; structure only in FIG. 15) at Asn-297, also called glycoengineered Rituximab G13; bi-antennary complex type glycoform) heavy: not shown light: QIVLSQSPAILSASPGEKVTMTCRASSSVSYIHWFQQKPGSSPKPWIYATNLASGVPVRFSGSGSGTSYSLTISRVEAEDAATYYCQQWTSNPPTFGGGTKLEIKRTVAAPSVFIFPPSDEQLKSGTASVVCLLNNFYPREAKVQWKVDNALQSGNSQESVTEQDSKDSTYSLSSTLTLSKADYEKHKVYACEVTHQGLSSPVTKSFNRGEC	–	0.048 µg/mL	2.6 A450 nm	22 fold
Rtx-G15 (antibody, human IgG1, kappa, homogeneous N-glycan G15 (bi-antennary complex type; structure only in FIG. 15) at Asn-297, also called glycoengineered Rituximab G15; bi-antennary complex type glycoform) heavy: not shown light: QIVLSQSPAILSASPGEKVTMTCRASSSVSYIHWFQQKPGSSPKPWIYATNLASGVPVRFSGSGSGTSYSLTISRVEAEDAATYYCQQWTSNPPTFGGGTKLEIKRTVAAPSVFIFPPSDEQLKSGTASVVCLLNNFYPREAKVQWKVDNALQSGNSQESVTEQDSKDSTYSLSSTLTLSKADYEKHKVYACEVTHQGLSSPVTKSFNRGEC	–	0.034 µg/mL	2.3 A450 nm	32 fold
Rtx-G9 (antibody, human IgG1, kappa, homogeneous N-glycan G9 without core fucose (bi-antennary complex type with alpha 1,2 fucose on one of the two terminal galactose) at Asn-297, also called glycoengineered Rituximab G9; bi-antennary complex type glycoform) heavy: not shown light: QIVLSQSPAILSASPGEKVTMTCRASSSVSYIHWFQQKPGSSPKPWIYATNLASGVPVRFSGSGSGTSYSLTISRVEAEDAATYYCQQWTSNPPTFGGGTKLEIKRTVAAPSVFIFPPSDEQLKSGTASVVCLLNNFYPREAKVQWKVDNALQSGNSQESVTEQDSKDSTYSLSSTLTLSKADYEKHKVYACEVTHQGLSSPVTKSFNRGEC	–	0.061 µg/mL	2.4 A450 nm	17 fold
Rtx-G5 (antibody, human IgG1, kappa, homogeneous non-fucosylated N-glycan G5 (tri-antennary complex type with terminal galactose residues) at Asn-297, also called glycoengineered Rituximab G5; tri-antennary complex type glycoform) heavy: not shown light: QIVLSQSPAILSASPGEKVTMTCRASSSVSYIHWFQQKPGSSPKPWIYATNLASGVPVRFSGSGSGTSYSLTISRVEAEDAATYYCQQWTSNPPTFGGGTKLEIKRTVAAPSVFIFPPSDEQLKSGTASVVCLLNNFYPREAKVQWKVDNALQSGNSQESVTEQDSKDSTYSLSSTLTLSKADYEKHKVYACEVTHQGLSSPVTKSFNRGEC	–	0.031 µg/mL	2.6 A450 nm	35 fold
Rtx-G12 (antibody, human IgG1, kappa, homogeneous N-glycan G12 (bi-antennary complex type; structure only in FIG. 15) at Asn-297, also called glycoengineered Rituximab G12; bi-antennary complex type glycoform) heavy: not shown light: QIVLSQSPAILSASPGEKVTMTCRASSSVSYIHWFQQKPGSSPKPWIYATNLASGVPVRFSGSGSGTSYSLTISRVEAEDAATYYCQQWTSNPPTFGGGTKLEIKRTVAAPSVFIFPPSDEQLKSGTASVVCLLNNFYPREAKVQWKVDNALQSGNSQESVTEQDSKDSTYSLSSTLTLSKADYEKHKVYACEVTHQGLSSPVTKSFNRGEC	–	0.033 µg/mL	2.6 A450 nm	33 fold

Second part, the binder after the results:

EC50 improvement Folds [1]	EC50 [2]	Maxi binding (A450 nm) [2]	EC50 improvement Folds [3]	Binder
1 fold	1.04 µg/mL	1.2 A450 nm	–	Commercial Rituximab (antibody, human IgG1, kappa, heterogeneous Fc N-glycans at N297: core-fucosylated biantennary complex type oligosaccharides carrying 0-2 galactose (G0F, G1F, G2F), DrugBank DB00073; also called non-modified Rituximab; original Rituximab) heavy: not shown light: QIVLSQSPAILSASPGEKVTMTCRASSSVSYIHWFQQKPGSSPKPWIYATNLASGVPVRFSGSGSGTSYSLTISRVEAEDAATYYCQQWTSNPPTFGGGTKLEIKRTVAAPSVFIFPPSDEQLKSGTASVVCLLNNFYPREAKVQWKVDNALQSGNSQESVTEQDSKDSTYSLSSTLTLSKADYEKHKVYACEVTHQGLSSPVTKSFNRGEC
–	0.034 µg/mL	2.3 A450 nm	32 fold	Rtx-G8 (antibody, human IgG1, kappa, homogeneous non-fucosylated N-glycan G8 (bi-antennary complex type with bisected GlcNAc and terminal di-galactose) at Asn-297, also called glycoengineered Rituximab G8; bi-antennary complex type glycoform) heavy: not shown light: QIVLSQSPAILSASPGEKVTMTCRASSSVSYIHWFQQKPGSSPKPWIYATNLASGVPVRFSGSGSGTSYSLTISRVEAEDAATYYCQQWTSNPPTFGGGTKLEIKRTVAAPSVFIFPPSDEQLKSGTASVVCLLNNFYPREAKVQWKVDNALQSGNSQESVTEQDSKDSTYSLSSTLTLSKADYEKHKVYACEVTHQGLSSPVTKSFNRGEC
–	0.32 µg/mL	1.3 A450 nm	3.2 fold	Rtx-G3 (antibody, human IgG1, kappa, homogeneous non-fucosylated N-glycan G3 (hybrid type; structure in FIG. 15) at Asn-297, also called glycoengineered Rituximab G3; hybrid type glycoform) heavy: not shown light: QIVLSQSPAILSASPGEKVTMTCRASSSVSYIHWFQQKPGSSPKPWIYATNLASGVPVRFSGSGSGTSYSLTISRVEAEDAATYYCQQWTSNPPTFGGGTKLEIKRTVAAPSVFIFPPSDEQLKSGTASVVCLLNNFYPREAKVQWKVDNALQSGNSQESVTEQDSKDSTYSLSSTLTLSKADYEKHKVYACEVTHQGLSSPVTKSFNRGEC
–	1.05 µg/mL	1.1 A450 nm	~1 fold	Rtx-G2 (antibody, human IgG1, kappa, homogeneous non-fucosylated N-glycan G2 (high mannose type, Man9GlcNAc2) at Asn-297, also called glycoengineered Rituximab G2; Man9GlcNAc2 glycoform) heavy: not shown light: QIVLSQSPAILSASPGEKVTMTCRASSSVSYIHWFQQKPGSSPKPWIYATNLASGVPVRFSGSGSGTSYSLTISRVEAEDAATYYCQQWTSNPPTFGGGTKLEIKRTVAAPSVFIFPPSDEQLKSGTASVVCLLNNFYPREAKVQWKVDNALQSGNSQESVTEQDSKDSTYSLSSTLTLSKADYEKHKVYACEVTHQGLSSPVTKSFNRGEC
–	0.16 µg/mL	1.4 A450 nm	6.5 fold	Rtx-G1 (antibody, human IgG1, kappa, homogeneous non-fucosylated N-glycan G1 (high mannose type, Man5GlcNAc2) at Asn-297, also called glycoengineered Rituximab G1; Man5GlcNAc2 glycoform) heavy: not shown light: QIVLSQSPAILSASPGEKVTMTCRASSSVSYIHWFQQKPGSSPKPWIYATNLASGVPVRFSGSGSGTSYSLTISRVEAEDAATYYCQQWTSNPPTFGGGTKLEIKRTVAAPSVFIFPPSDEQLKSGTASVVCLLNNFYPREAKVQWKVDNALQSGNSQESVTEQDSKDSTYSLSSTLTLSKADYEKHKVYACEVTHQGLSSPVTKSFNRGEC
–	0.394 µg/mL	1.2 A450 nm	2.7 fold	Rtx-G4 (antibody, human IgG1, kappa, homogeneous non-fucosylated N-glycan G4 (hybrid type; structure in FIG. 15) at Asn-297, also called glycoengineered Rituximab G4; hybrid type glycoform) heavy: not shown light: QIVLSQSPAILSASPGEKVTMTCRASSSVSYIHWFQQKPGSSPKPWIYATNLASGVPVRFSGSGSGTSYSLTISRVEAEDAATYYCQQWTSNPPTFGGGTKLEIKRTVAAPSVFIFPPSDEQLKSGTASVVCLLNNFYPREAKVQWKVDNALQSGNSQESVTEQDSKDSTYSLSSTLTLSKADYEKHKVYACEVTHQGLSSPVTKSFNRGEC
–	0.032 µg/mL	2.5 A450 nm	34 fold	Rtx-G16 (antibody, human IgG1, kappa, homogeneous non-fucosylated N-glycan G16 (bi-antennary complex type with terminal alpha-2,6 sialic acids) at Asn-297, also called glycoengineered Rituximab G16; bi-antennary complex type glycoform) heavy: not shown light: QIVLSQSPAILSASPGEKVTMTCRASSSVSYIHWFQQKPGSSPKPWIYATNLASGVPVRFSGSGSGTSYSLTISRVEAEDAATYYCQQWTSNPPTFGGGTKLEIKRTVAAPSVFIFPPSDEQLKSGTASVVCLLNNFYPREAKVQWKVDNALQSGNSQESVTEQDSKDSTYSLSSTLTLSKADYEKHKVYACEVTHQGLSSPVTKSFNRGEC
–	0.043 µg/mL	2.2 A450 nm	26 fold	Rtx-G10 (antibody, human IgG1, kappa, homogeneous N-glycan G10 without core fucose (bi-antennary complex type with alpha 1,3 fucose on both GlcNAc and terminal di-galactose) at Asn-297, also called glycoengineered Rituximab G10; bi-antennary complex type glycoform) heavy: not shown light: QIVLSQSPAILSASPGEKVTMTCRASSSVSYIHWFQQKPGSSPKPWIYATNLASGVPVRFSGSGSGTSYSLTISRVEAEDAATYYCQQWTSNPPTFGGGTKLEIKRTVAAPSVFIFPPSDEQLKSGTASVVCLLNNFYPREAKVQWKVDNALQSGNSQESVTEQDSKDSTYSLSSTLTLSKADYEKHKVYACEVTHQGLSSPVTKSFNRGEC
–	0.031 µg/mL	2.5 A450 nm	35 fold	Rtx-G7 (antibody, human IgG1, kappa, homogeneous non-fucosylated N-glycan G7 (bi-antennary complex type with terminal di-galactose) at Asn-297, also called glycoengineered Rituximab G7; bi-antennary complex type glycoform) heavy: not shown light: QIVLSQSPAILSASPGEKVTMTCRASSSVSYIHWFQQKPGSSPKPWIYATNLASGVPVRFSGSGSGTSYSLTISRVEAEDAATYYCQQWTSNPPTFGGGTKLEIKRTVAAPSVFIFPPSDEQLKSGTASVVCLLNNFYPREAKVQWKVDNALQSGNSQESVTEQDSKDSTYSLSSTLTLSKADYEKHKVYACEVTHQGLSSPVTKSFNRGEC
